Source: publication PMC6042779

Biological target: SRC (UniProt P12931)
Experiment: bead-immobilized peptide pulldown of SRC-GST
Conditions: reference: nonphosphorylated FAK peptide; sites Y397

binding against the reference: gained
Substance: FAK FERM-kinase linker region, 358-409 (from UniProt P34152) pY397 FAK peptide
